Experiments:
[1] = target: control cells (Staphylococcus epidermidis), whole cells (Staphylococcus epidermidis); test: mono-scFv-phage ELISA on control cells
[2] = target: Propionibacterium acnes (P. acnes) whole cells, surface antigen not identified (Propionibacterium acnes); test: mono-scFv-phage ELISA on whole P. acnes
[3] = target: control cells (Staphylococcus epidermidis), whole cells (Staphylococcus epidermidis); test: IgG ELISA on control cells
[4] = target: Propionibacterium acnes (P. acnes) whole cells, surface antigen not identified (Propionibacterium acnes); test: IgG ELISA on whole P. acnes

| Binder | O.D. 450 nm [1] | ELISA O.D. value [2] | O.D. 450 nm [2] | O.D. 450 nm [3] | O.D. 450 nm [4] |
| --- | --- | --- | --- | --- | --- |
| mono-scFv-phage No. 10 (scFv, V domains shown) VH: QVQLVESGGGLIQPGGSLRLSCVASGFTVSSSFMSWVRLAPGKGLEWVALAYSGGNTYYADSVKGRFTVSRDDSSNTLYLQMNSLRAEDTAVYYCSCEGKAVSGSRDLHFEFWSPGTLVTVSS VL: SYELTQAPSLSVSPGQTANIICSGDNLRTKYVSWYQQKPGQAPVLVIYNDNDRPSGIPERFSGTNSGNTAALTISRVEAGDEADYYCQVWDSSSDHLIFGGGTKLTVL | 0.0023 O.D. 450 nm | 2.07 O.D. | 1.81 O.D. 450 nm |  |  |
| 10F antibody (antibody, V domains shown) VH: QVQLVESGGGLIQPGGSLRLSCVASGFTVSSSFMSWVRLAPGKGLEWVALAYSGGNTYYADSVKGRFTVSRDDSSNTLYLQMNSLRAEDTAVYYCSCEGKAVSGSRDLHFEFWSPGTLVTVSS VL: SYELTQAPSLSVSPGQTANIICSGDNLRTKYVSWYQQKPGQAPVLVIYNDNDRPSGIPERFSGTNSGNTAALTISRVEAGDEADYYCQVWDSSSDHLIFGGGTKLTVL |  |  |  | -0.0248 O.D. 450 nm | 0.00605 O.D. 450 nm |
| mono-scFv-phage No. 6 (scFv, V domains shown) VH: QVQLVESGGGVVRPGGSLRLSCTASGFTFDDHGMSWVRQAPGKGLEWVSTINLNGGSTAYADSVKGRFTISRDNAKNSLYLQMNSLRAEDTAVYYCSTRHLHHWGQGTLVTVSS VL: DIVMTQTPLSSPVTLGQPASISCRSSQSLVHSNGNTYLTWLQQRPGQPPRLLIHKISNRFSGVPDRFSGSGAGTDFTLKISRVEAEDVGVYYCVQAKQFPLTFGQGTRLEIK | 0.0041 O.D. 450 nm | 2.22 O.D. | 1.95 O.D. 450 nm |  |  |
| 6F antibody (antibody, V domains shown) VH: QVQLVESGGGVVRPGGSLRLSCTASGFTFDDHGMSWVRQAPGKGLEWVSTINLNGGSTAYADSVKGRFTISRDNAKNSLYLQMNSLRAEDTAVYYCSTRHLHHWGQGTLVTVSS VL: DIVMTQTPLSSPVTLGQPASISCRSSQSLVHSNGNTYLTWLQQRPGQPPRLLIHKISNRFSGVPDRFSGSGAGTDFTLKISRVEAEDVGVYYCVQAKQFPLTFGQGTRLEIK |  |  |  | 0.0114 O.D. 450 nm | 2.36 O.D. 450 nm |
| mono-scFv-phage No. 8 (scFv, V domains shown) VH: QVQLVQSGGGVVQPGGSLRLSCAASGFSFNDYAMHWVRQVPGKGLEWVSSISWNSRSTVYAASVEGRFSISRDNSKNSLYLQMNSLRAEDAAVYYCTTDLGVVPAAIYAFDIWGQGTMVTVSS VL: DIQMTQSPSVMSASVGDRVNITCRASQGITNWLAWYQQKPGKAPKLLISAASSLQSGVPSRFSGSGSGTDFTLTISSLQPDDFATYYCQQTATFQITFGQGTRLDIK | 0.0044 O.D. 450 nm | 2.08 O.D. | 1.82 O.D. 450 nm |  |  |
| 8F antibody (antibody, V domains shown) VH: QVQLVQSGGGVVQPGGSLRLSCAASGFSFNDYAMHWVRQVPGKGLEWVSSISWNSRSTVYAASVEGRFSISRDNSKNSLYLQMNSLRAEDAAVYYCTTDLGVVPAAIYAFDIWGQGTMVTVSS VL: DIQMTQSPSVMSASVGDRVNITCRASQGITNWLAWYQQKPGKAPKLLISAASSLQSGVPSRFSGSGSGTDFTLTISSLQPDDFATYYCQQTATFQITFGQGTRLDIK |  |  |  | -0.0268 O.D. 450 nm | 2.32 O.D. 450 nm |
| mono-scFv-phage No. 3 (scFv, V domains shown) VH: QMQLVQSGAEVKKPGASVKVSCKASGYTFTDYYIHWVRQAPGQGLEWMGWINPNSGAPEFAQRFQGRVSMTRDASINTTYMELSGLRSEDTAVYYCVKGLEHAAGSAIFDRWGQGTMVTVSS VL: QTVVTQEPSFSVSPGGTVTLTCGLTSGSVSTSHFPSWYQQTPGQAPRTLIYFKDTRSSGVPDRFSGSILGNKAALTITGAQADDESDYYCALSMGSGIWVFGGGTKLTVL | 0.0002 O.D. 450 nm | 3.62 O.D. | 3.36 O.D. 450 nm |  |  |
| 3F antibody (antibody, V domains shown) VH: QMQLVQSGAEVKKPGASVKVSCKASGYTFTDYYIHWVRQAPGQGLEWMGWINPNSGAPEFAQRFQGRVSMTRDASINTTYMELSGLRSEDTAVYYCVKGLEHAAGSAIFDRWGQGTMVTVSS VL: QTVVTQEPSFSVSPGGTVTLTCGLTSGSVSTSHFPSWYQQTPGQAPRTLIYFKDTRSSGVPDRFSGSILGNKAALTITGAQADDESDYYCALSMGSGIWVFGGGTKLTVL |  |  |  | -0.0105 O.D. 450 nm | 0.0149 O.D. 450 nm |
